Experimental data published in patent US20210163923A1 (IONTAS, published 2021).

B1: mono-specific anti-FIXa IgG (Emicizumab anti-FIXa VH with Emicizumab VL, pINT17-BSD-anti-FIXa) (antibody, V domains shown)
VH: QVQLVESGGGLVQPGGSLRLSCAASGFTFSYYDIQWVRQAPGKGLEWVSSISPSGQSTYYRREVKGRFTISRDNSKNTLYLQMNSLRAEDTAVYYCARRTGREYGGGWYFDYWGQGTLVTVSS
VL: DIQMTQSPSSLSASVGDRVTITCKASRNIERQLAWYQQKPGQAPELLIYQASRKESGVPDRFSGSRYGTDFTLTISSLQPEDIATYYCQQYSDPPLTFGGGTKVEIK
notes: also called mono-specific anti-FIXa arm in IgG format
B2: 337_1_C08 (antibody, V domains shown)
VH: EVQLVQSGAEVKRPGASVTVSCKASGYTFTNHGISWVRQAPGQGLEWMGWNSPYNGNTNYAQRFQGRVTMTTDTSTNTAYMELRTLTSDDTAMYYCARDRDYYDAGSYWGQGTLVTVSS
VL: SYELTQPPSVSVSPGQTARITCSGDSLPKQYAYWYQQKPGQAPVLVIYKDSERPSGIPERFSGSGSGTTVTLTISGVQAEDEADYYCQSADSDNAFVFGRGTKLTVL
notes: Anti-PD1 antibody identified by phage display; also called anti-PD1 antibody 337_1_C08; 337_C08
B3: Ustekinumab (antibody, V domains shown)
VH: EVQLVQSGAEVKKPGESLKISCKGSGYSFTTYWLGWVRQMPGKGLDWIGIMSPVDSDIRYSPSFQGQVTMSVDKSITTAYLQWNSLKASDTAMYYCARRRPGQGYFDFWGQGTLVTVS
VL: DIQMTQSPSSLSASVGDRVTITCRASQGISSWLAWYQQKPEKAPKSLIYAASSLQSGVPSRFSGSGSGTDFTLTISSLQPEDFATYYCQQYNIYPYTFGQGTKLEIKR
notes: Anti-IL12 antibody; also called Ustenkinumab; Ustenikumab
B4: Emicizumab (bi-specific, displayed from pINT17-Bi-CMV-Emicizumab) (bispecific antibody, human IgG4 S228P)
light: DIQMTQSPSSLSASVGDRVTITCKASRNIERQLAWYQQKPGQAPELLIYQASRKESGVPDRFSGSRYGTDFTLTISSLQPEDIATYYCQQYSDPPLTFGGGTKVEIKRTAAAPSVFIFPPSDEQLKSGTASVVCLLNNFYPREAKVQWKVDNALQSGNSQESVTEQDSKDSTYSLSSTLTLSKADYEKHKVYACEVTHQGLSSPVTKSFNRGEC
heavy 1: QVQLVESGGGLVQPGGSLRLSCAASGFTFSYYDIQWVRQAPGKGLEWVSSISPSGQSTYYRREVKGRFTISRDNSKNTLYLQMNSLRAEDTAVYYCARRTGREYGGGWYFDYWGQGTLVTVSSASTKGPSVFPLAPCSRSTSESTAALGCLVKDYFPEPVTVSWNSGALTSGVHTFPAVLQSSGLYSLSSVVTVPSSSLGTQTYTCNVDHKPSNTKVDKRVESKYGPPCPPCPAPEFLGGPSVFLFPPKPKDTLMISRTPEVTCVVVDVSQEDPEVQFNWYVDGVEVHNAKTKPREEQYNSTYRVVSVLTVLHQDWLNGKEYKCKVSNKGLPSSIEKTISKAKGQPREPQVYTLPPSQKEMTKNQVSLTCLVKGFYPSDIAVEWESNGQPENNYKTTPPVLDSDGSFFLYSKLTVDKSRWQEGNVFSCSVMHEALHNRYTQKSLSLSPEQKLISEEDLNAVGQDTQEVIVVPHSLPFKVVVISAILALVVLTIISLIILIMLWQKKPR
heavy 2: QVQLVQSGSELKKPGASVKVSCKASGYTFTDNNMDWVRQAPGQGLEWMGDINTRSGGSIYNEEFQDRVIMTVDKSTDTAYMELSSLRSEDTATYHCARRKSYGYYLDEWGEGTLVTVSSASTKGPSVFPLAPCSRSTSESTAALGCLVKDYFPEPVTVSWNSGALTSGVHTFPAVLQSSGLYSLSSVVTVPSSSLGTQTYTCNVDHKPSNTKVDKRVESKYGPPCPPCPAPEFLGGPSVFLFPPKPKDTLMISRTPEVTCVVVDVSQEDPEVQFNWYVDGVEVHNAKTKPREEQYNSTYRVVSVLTVLHQDWLNGKEYKCKVSNKGLPSSIEKTISKAKGQPREPQVYTLPPSQEEMTKNQVSLTCLVKGFYPSDIAVEWESNGQPENNYKTTPPVLDSDGSFFLYSKLTVDKSRWQEGNVFSCSVMHEALHNHYTQESLSLSPEQKLISEEDLNAVGQDTQEVIVVPHSLPFKVVVISAILALVVLTIISLIILIMLWQKKPR
notes: also called bi-specific Emicizumab; knobs-into-holes common light chain IgG

Key:
[1] = molecular target: T1, unconjugated streptavidin-PE (UniProt P22629 37-163, limits assumed, phycoerythrin conjugate); experiment: flow cytometry of HEK293 cells 24 hours after transfection, stained with streptavidin-PE alone [panel Streptavidin PE]
T1 construct: Control staining reagent; also called streptavidin-PE alone

PD-1 = molecular target: T2, PD-1 (UniProt Q15116 25-167, biotinylated in the MACS experiments); experiment: surface plasmon resonance (SPR)
T2 construct: The catalogue number points to a human PD-1 reagent; also called biotinylated PD1 (PD1-H82E4, AcroBiosystems); PD-1-biotin

[2] = molecular target: T1, unconjugated streptavidin-PE; experiment: flow cytometry of HEK293 cells displaying the IgG, stained with streptavidin PE alone

T1 sequence (P22629 37-163 limits assumed): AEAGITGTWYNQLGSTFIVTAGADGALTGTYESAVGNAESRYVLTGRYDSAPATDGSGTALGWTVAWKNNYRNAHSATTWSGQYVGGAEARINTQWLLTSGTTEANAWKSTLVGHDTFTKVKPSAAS
T2 sequence (Q15116 25-167 limits assumed): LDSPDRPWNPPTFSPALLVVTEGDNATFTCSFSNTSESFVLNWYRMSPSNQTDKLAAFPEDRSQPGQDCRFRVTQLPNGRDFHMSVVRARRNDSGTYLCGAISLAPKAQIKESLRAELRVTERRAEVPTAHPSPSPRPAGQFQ

| Binder | binding result [1] | further results |
| --- | --- | --- |
| B1 | no binding |  |
| B2 |  | Kd (PD-1): 74 nM |
| B3 |  | binding result [2]: no binding |
| B4 | no binding |  |
